A word on the Kd: it is a measure of binding affinity in units of concentration. As usually defined, the koff is the rate constant with which the complex falls apart. Broadly, the kon is the second-order rate constant of association.

Experiment [1] deals with T1, recombinant human fractalkine (CX3CL1; R&D systems) (human, UniProt P78423 25-100).
T1 sequence (looked up): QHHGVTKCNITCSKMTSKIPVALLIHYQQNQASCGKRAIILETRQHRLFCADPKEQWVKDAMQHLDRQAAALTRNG
In words: ELISA. Background: In an ELISA, binding on a coated surface is turned into a signal by an enzyme label.

The target in experiment [2] is RSV G protein (receptor-binding glycoprotein) (human respiratory syncytial virus, …). The experiment can be described thus: cell-based or functional assay.
Experiment [3] addresses T2, soluble recombinant G protein (amino acids 66-292 of the 18537 strain sequence) (RSV strain 18537 (subtype B), UniProt P20896 66-292).
T2 construct: also called G(B); recombinant protein G
T2 sequence: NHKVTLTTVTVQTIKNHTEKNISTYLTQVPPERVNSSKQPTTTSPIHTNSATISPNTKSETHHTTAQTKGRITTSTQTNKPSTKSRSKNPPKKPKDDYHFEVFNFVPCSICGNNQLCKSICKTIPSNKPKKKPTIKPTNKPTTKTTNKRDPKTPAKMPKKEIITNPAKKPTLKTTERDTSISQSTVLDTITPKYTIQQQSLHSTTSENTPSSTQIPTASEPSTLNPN
In words: SPR (Biacore 3000), Fab over immobilised recombinant antigen.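 Also: antigen immobilised on CM5 chip at very low density (about 50 RU), rate constants fitted globally with a 1:1 Langmuir model, Fabs obtained by enzymatic cleavage.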 Background: SPR reads the build-up and loss of mass on a sensor chip optically.

The target in experiment [4] is RSV protein F (fusion glycoprotein), recombinant or purified (human respiratory syncytial virus, …, UniProt P03420 26-109; P03420 137-524). The experiment can be described thus: cell-based or functional assay.
RSV protein F (fusion glycoprotein), recombinant or purified, sequence (P03420 26-109, chain 1 of 2): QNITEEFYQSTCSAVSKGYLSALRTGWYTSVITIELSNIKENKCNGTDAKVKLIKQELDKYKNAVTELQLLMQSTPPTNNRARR
RSV protein F (fusion glycoprotein), recombinant or purified, sequence (P03420 137-524, chain 2 of 2): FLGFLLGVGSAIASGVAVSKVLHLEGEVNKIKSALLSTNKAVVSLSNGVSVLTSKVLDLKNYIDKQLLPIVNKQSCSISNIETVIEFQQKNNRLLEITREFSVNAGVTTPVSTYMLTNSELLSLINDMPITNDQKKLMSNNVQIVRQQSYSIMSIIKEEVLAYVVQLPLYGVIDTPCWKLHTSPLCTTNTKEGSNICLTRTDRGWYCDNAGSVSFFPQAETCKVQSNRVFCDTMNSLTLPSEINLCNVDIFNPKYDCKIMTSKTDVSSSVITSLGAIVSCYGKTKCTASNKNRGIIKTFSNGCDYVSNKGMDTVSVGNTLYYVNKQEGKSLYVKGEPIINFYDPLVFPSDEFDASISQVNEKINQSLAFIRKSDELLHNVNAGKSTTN

B1: antibody from clone 793 (antibody, human IgG1, kappa, V domains shown)
VH: QVQLVESGGGLVKPGGSLRLSCAASGFPFGDYYMSWIRQAPGKGLEWVAYINRGGTTIYYADSVKGRFTISRDNAKNSLFLQMNSLRAGDTALYYCARGLILALPTATVELGAFDIWGQGTMVTVSS
VL: DIQMTQSPSSLSASVGDRVTITCRASQSITGYLNWYQQKPGKAPKLLIYATSTLQSEVPSRFSGSGSGTDFTLTISSLQPEDFATYYCQQSYNTLTFGGGTKVEIKR
Turning to B1, the binding result in experiment [1] is “no binding”. For the same molecule, the “EC50, PRNT with complement, RSV subtype A” value (from here on “EC50, PRNT with complement”) in experiment [2] is 2.52 µg/mL.

B2: Fab fragment of antibody from clone 811 (Fab, V domains shown)
VH: QVQLVQSGAVVETPGASVKVSCKASGYIFGNYYIHWVRQAPGQGLEWMAVINPNGGSTTSAQKFQDRITVTRDTSTTTVYLEVDNLRSEDTATYYCARQRSVTGGFDAWLLIPDASNTWGQGTMVTVSS
VL: DIVMTQSPDSLAVSLGERATINCRSSETVLYTSKNQSYLAWYQQKARQPPKLLLYWASTRESGVPARFSGSGSGTDFTLAISSLQAEDVAVYYCQQFFRSPFTFGPGTRLEIKR
notes: also called Fab clone 811; 811 (G)
B2: in experiment [3], the Kd came to 0.34 nM, the koff is 0.000171 s⁻¹, the kon is 498000 M⁻¹ s⁻¹ and the t1/2 was 1.13 h.

B3: antibody from clone 835 (antibody, human IgG1, kappa, V domains shown)
VH: QVQLVQSGAEVKRPGASVKVSCKASGYTFISYGFSWVRQAPGQGLEWMGWSSVYNGDTNYAQKFHGRVNMTTDTSTNTAYMELRGLRSDDTAVYFCARDRNVVLLPAAPFGGMDVWGQGTMVTVSS
VL: DIQLTQSPSFLSASLEDRVTITCRASQGISSYLAWYQQKPGKAPKLLLDAASTLQSGVPSRFSGSGSGTEFTLTISSLQPEDFATYYCQQLNSYPRTFGQGTKVDIKR
B3: the binding result in experiment [1] was “no binding”.

B4: antibody from clone 853 (antibody, human IgG1, kappa, V domains shown)
VH: EVQLVQSGAEVKKPGQSLKISCKTSGYIFTNYWIGWVRQRPGKGLEWMGVIFPADSDARYSPSFQGQVTISADKSIGTAYLQWSSLKASDTAIYYCARPKYYFDSSGQFSEMYYFDFWGQGTLVTVSS
VL: EIVLTQSPGTLSLSPGERATLSCRASQSVSSNYLAWYQQKPGQAPRLLIYGASSRAAGMPDRFSGSGSGTDFTLTISRLEPEDFAVYYCQQYGNSPLTFGGGTEVEIKR
Turning to B4, the binding result in experiment [1] is recorded as “no binding”. The “EC50, PRNT with complement” value in experiment [2] worked out at 1.49 µg/mL.

B5: Fab fragment of antibody from clone 853 (Fab, V domains shown)
VH: EVQLVQSGAEVKKPGQSLKISCKTSGYIFTNYWIGWVRQRPGKGLEWMGVIFPADSDARYSPSFQGQVTISADKSIGTAYLQWSSLKASDTAIYYCARPKYYFDSSGQFSEMYYFDFWGQGTLVTVSS
VL: EIVLTQSPGTLSLSPGERATLSCRASQSVSSNYLAWYQQKPGQAPRLLIYGASSRAAGMPDRFSGSGSGTDFTLTISRLEPEDFAVYYCQQYGNSPLTFGGGTEVEIKR
notes: also called Fab clone 853; 853 (G)
Take B5: in experiment [3], the Kd amounted to 0.79 nM, the koff is 0.0014 s⁻¹, the kon came out at 1.77e+06 M⁻¹ s⁻¹ and the t1/2 was determined as 0.138 h.

B6: Fab fragment of antibody from clone 816 (Fab, V domains shown)
VH: EVQLLESGGGLVQPGGSLRLSCVASGFTFSTYAMTWVRQAPGKGLEWVSVIRASGDSEIYADSVRGRFTISRDNSKNTVFLQMDSLRVEDTAVYFCANIGQRRYCSGDHCYGHFDYWGQGTLVTVSS
VL: DIVMTQSPLSLPVTPGEPASISCRSSQSLLHSDGRYYVDWYLQKPGQSPHLLIYLASNRASGVPDRFTGSGSGTDFTLKISRVEAEDVGVYYCMQGLHTPWTFGQGTKVDIKR
On to B6, for which, in experiment [3], the Kd was determined as 0.09 nM, the off-rate (koff) stood at 0.000178 s⁻¹, the kon turned out to be 2.02e+06 M⁻¹ s⁻¹ and the t1/2 came to 1.08 h.

B7: antibody from clone 816 (antibody, human IgG1, kappa, V domains shown)
VH: EVQLLESGGGLVQPGGSLRLSCVASGFTFSTYAMTWVRQAPGKGLEWVSVIRASGDSEIYADSVRGRFTISRDNSKNTVFLQMDSLRVEDTAVYFCANIGQRRYCSGDHCYGHFDYWGQGTLVTVSS
VL: DIVMTQSPLSLPVTPGEPASISCRSSQSLLHSDGRYYVDWYLQKPGQSPHLLIYLASNRASGVPDRFTGSGSGTDFTLKISRVEAEDVGVYYCMQGLHTPWTFGQGTKVDIKR
Turning to B7, the binding result in experiment [1] was “no binding”.

B8: Palivizumab (antibody, V domains shown)
VH: QVTLRESGPALVKPTQTLTLTCTFSGFSLSTSGMSVGWIRQPPGKALEWLADIWWDDKKDYNPSLKSRLTISKDTSKNQVVLKVTNMDPADTATYYCARSMITNWYFDVWGAGTTVTVSS
VL: DIQMTQSPSTLSASVGDRVTITCKCQLSVGYMHWYQQKPGKAPKLLIYDTSKLASGVPSRFSGSGSGTEFTLTISSLQPDDFATYYCFQGSGYPFTFGGGTKLEIK
As for B8, in experiment [4], the “EC50, PRNT with complement” value was 0.14 µg/mL.

B9: antibody from clone 841 (antibody, human IgG1, kappa, V domains shown)
VH: QVQLVQSGAEVKKPGASVKVSCKASGYTFISFGISWVRQAPGQGLEWMGWISAYNGNTDYAQRLQDRVTMTRDTATSTAYLELRSLKSDDTAVYYCTRDESMLRGVTEGFGPIDYWGQGTLVTVSS
VL: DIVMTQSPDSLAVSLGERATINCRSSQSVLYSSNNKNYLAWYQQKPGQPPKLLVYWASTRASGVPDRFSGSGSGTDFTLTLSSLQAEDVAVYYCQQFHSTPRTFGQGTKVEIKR
In the case of B9, the binding result in experiment [1] was “no binding”.

B10: Fab fragment of antibody from clone 796 (Fab, V domains shown)
VH: QVQLVESGGGVVQPGRSLRLSCAASGFSFSHFGMHWVRQVPGKGLEWVAIISYDGNNVHYADSVKGRFTISRDNSKNTLFLQMNSLRDDDTGVYYCAKDDVATDLAAYYYFDVWGRGTLVTVSS
VL: DIVMTQTPLSLSVTPGQPASISCRSSQSLLRSDGKTFLYWYLQKPGQSPQPLMYEVSSRFSGVPDRFSGSGSGADFTLNISRVETEDVGIYYCMQGLKIRRTFGPGTKVEIKR
notes: also called Fab clone 796; 796 (G)
Take B10: in experiment [3], the Kd was 0.48 nM, the koff amounted to 0.000403 s⁻¹, the kon is 833000 M⁻¹ s⁻¹ and the t1/2 amounted to 0.478 h.

B11: antibody from clone 888 (antibody, human IgG1, kappa, V domains shown)
VH: QLQLQESGPGLVKPSETLSLTCTASGGSINSSNFYWGWIRQPPGKGLEWIGSIFYSGTTYYNPSLKSRVTISVDTSKNQFSLKLSPVTAADTAVYHCARHGFRYCNNGVCSINLDAFDIWGQGTMVTVSS
VL: DIVMTQSPLSLPVTPGAPASISCRSSQSLLRTNGYNYLDWYLQKPGQSPQLLIYLGSIRASGVPDRFSGSGSGTDFTLKISRVEAEDVGVYYCMQSLQTSITFGQGTRLEIKR
Take B11: the binding result in experiment [1] is given as “no binding”. Besides, the “EC50, PRNT with complement” value in experiment [2] came out at 0.14 µg/mL.

B12: antibody from clone 856 (antibody, human IgG1, kappa, V domains shown)
VH: QVQLVQSGAEVKKPGASVKVSCKASGYTFSNYGFSWVRQAPGRGLEWMGWISAYNGNTYYAQNLQGRVTMTTDTSTTTAYMVLRSLRSDDTAMYYCARDGNTAGVDMWSRDGFDIWGQGTMVTVSS
VL: DIVMTQTPLSLPVTPGEPASISCRSSQSLLDSNDGNTYLDWYLQKPGQSPQLLIYTFSYRASGVPDRFSGSGSGTDFTLKISRVEAEDVGVYYCMQRIEFPYTFGQGTKLEIKR
On to B12, for which the binding result in experiment [1] was “no binding”.

B13: antibody from clone 855 (antibody, human IgG1, kappa, V domains shown)
VH: QVQLVQSGPEVKKPGASVKVSCKASGYVLTNYAFSWVRQAPGQGLEWLGWISGSNGNTYYAEKFQGRVTMTTDTSTSTAYMELRSLRSDDTAVYFCARDLLRSTYFDYWGQGTLVTVSS
VL: DIQMTQSPSSVSASVGDRVTITCRASQAISNWLAWYQQKPGKAPKLLIYAASSLQSGVPSRFSGSGSGTDFTLTISGLQPEDFATYYCQQADTFPFTFGPGTKVDIKR
On to B13, for which the binding result in experiment [1] is recorded as “no binding”. The “EC50, PRNT with complement” value in experiment [2] turned out to be 6.35 µg/mL.

B14: Fab fragment of antibody from clone 838 (Fab, V domains shown)
VH: QVQLVESGGGVVQPGTSLRLSCAASGFTFSTFGMHWVRQAPGKGLEWVAVISYDGNKKYYADSVKGRFTISRDNSKNTLYLQVNSLRVEDTAVYYCAAQTPYFNESSGLVPDWGQGTLVTVSS
VL: DIQMTQSPSSLSASVGDRVSITCRASQGISNYLAWYQQKPGKVPKLLIYAASTLQSGVPSRFSGSGSGTDFTLTISSLQPEDVATYYCQKYNSAPQTFGQGTKVEIKR
notes: also called Fab clone 838; 838 (G)
Regarding B14, in experiment [3], the Kd worked out at 0.19 nM, the dissociation rate constant (koff) amounted to 5.06e-05 s⁻¹, the kon was determined as 264000 M⁻¹ s⁻¹ and the t1/2 was determined as 3.83 h.

B15: Fab fragment of antibody from clone 859 (Fab, V domains shown)
VH: QVQLVESGGGVVQPGRSLRLSCAVSGSSFSKYGIHWVRQAPGKGLEWVAVISYDGSKKYFTDSVKGRFTIARDNSQNTVFLQMNSLRAEDTAVYYCATGGGVNVTSWSDVEHSSSLGYWGLGTLVTVSS
VL: DIQMTQSPSSLSASVGDRVTITCRASQGIRNYLAWYQQKPGKVPKLLVFAASTLQSGVPSRFSGSGSGTDFTLTISSLQPEDVATYYCQRYNSAPLTFGGGTKVEIKR
notes: also called Fab clone 859; 859 (G)
For B15, in experiment [3], the Kd came out at 0.12 nM, the koff was 4.63e-05 s⁻¹, the kon turned out to be 380000 M⁻¹ s⁻¹ and the t1/2 stood at 4.17 h.

For the origin of these results see US20100040606A1 (SYMPHOGEN A S, published 2010).
